Measurements as given in the DeepSol protein solubility set.

experiment: soluble on expression in E. coli; label from the status in PepcDB or PDB records

Row | Sequence | soluble on expression in E. coli
1 | MGSDKIHHHHHHMIRFENISKQNSHRILFLDSSAALNRGEKIGLVGPNGAGKTTLFRMITGEEVPDAGQVSIEKQVSIGYFNQDVGEMSGRSAVAEVMDGAGPVSSVAAEMAELEAAMCDPDRDDMDAVVERYGEVQARFEELGGYELEGRAREVLAGLSFSQEMMDGDVGALSGGWKMRVALGRILLMRPDAMLLDEPSNHLDIESLIWLEEFLKGYDGALLMTSHDREFLNRIVTKIIEIDGGSLNTYSGDYAFFERQRAQNEKQQQAQFERQQAMLAKEIKFIERFKARASHAAQVQSRVKKLDKIERFEPPRRRQTVSFDFPPAPRSGDDVAVFKSVHKGYGSRAIYQGLDLIIRRKERWCVMGVNGAGKSTLLKLVAGAADPDSGTVTVGASVKMGYFSQHAMELLDGERTVYESLEDRFPQANQGSLRTLAGCFGFSGDDVEKKCRVLSGGEKARLVMAIMLYNPPNFLVLDEPTNHLDLDTKQMLIAALANYEGTMLFVSHDRHFLAALSNRVLELTPEGVHQYSGGYTEYVARTGHEAPGLRS | not soluble
2 | HATMEPLNCFVDLQSDSCLIRTGSQFQTGDRNAAARVAGLKPEQVTLETTFLGGGFGRRACPASDFVIEAVQVAKTVGKPVMVIRTREDDMRAG | not soluble
3 | MDSKKILYISQEIFPYLPETDISVVSRKLPQTIQERGNEVRIFMPRYGIINERRNQLHEVIRLSGINMIINDNDHPLIIKVASIQSARMQVYFIDNDDFFKRKTMYDIKPKQENDNDERAIFFVRGALEAIKKLRWIPDVIHCHGWFTALAALYLKKMYADDPCLQKAKVVYSVYDDAGQGVIPETLFGKLGFDKITPDDLSVMEQSSDYLALNRLAIRYADGVIQGSETIAPELTDYISSLEGKAFLPYQGKEDYEEAFDNFYSDLLTANLEHHHHHH | not soluble
4 | MAHHHHHHMMSRFETSPRDRRYNSAVRSSLFSFVLRRRRNLHDKKKPPLSANGPLTSVVHPRARNHLPDEVNLTTTLVRSCFCINIAPLPARSCASYSPRCSEQTVSRFFPHPFTFRASAIRGHNARLQLRRCTHHFLETPL | not soluble
5 | MTDEVILANATLVLRGETVTGSLHIKGETIAGIDQGAHVPAGAVDCEGDFVSPGLVELHTDNLERHIQPRPKVDWPHAAAILAHDAELAGTGITTVFDAMRVGSIPSGAGRYLQYARNLSRELWQLREASALKISHFLHLRAEVCSETLVEELDEFAPEDRVGLVSLMDHTPGQRQFRDMTKLEAYMKGKHAMSDDTFLQHVSQLKGLRDRYGDRHEIETVKAARRLGSVLASHDDTTAEQVAVSAGHGIRLAEFPTTIEAAEACHAHGIKVIMGAPNLIRGGSHSGNVAAADLAERGLLDILSSDYVPSALLLSAVRLGALWGDMARGMATVTRTPAQAVGLDDRGEIAPGLRADLIRFRMSQDVPALQSVWSRGRRVA | not soluble
6 | MRKIILASGSPRRKELLELAGVPFEIIVSEVEETIGAYSSPSDIVMSLALQKASAVAENNSDHIVLGADTIVTYESRILGKPSNKAEAKEMLQLLSGKTHEVYTGVAIIAKDKTVTFYERTEVTFWELTEEEIDAYVASKEPLDKAGSYGIQGKGSIFVQHIQGDYYSVVGLPISRLVRELKQFNIDVTHA | not soluble
7 | MGSDKIHHHHHHMKKVNYAAIDIGSNAVRLLIKCVNEENAPELMSKVQLIRIPLRLGEDAFTMGVISAEKEKKLIRLMKAYKQLMKIYDVVDYRACATSAMRDARNGKDIARQIARKTGIRVDIIDGQEEAHIVYDNHIEQLFASGQNYLYVDVGGGSTEINLISNGELKNSRSYNIGTVRMLSGMVKEEEKEALRTDLIGLAAEYAPTSIIGSGGNINKLFRLADKKDKKASLLPVESLREIYEALQALPAEQRIKQYKLKPDRADVIVPAAEIFLEVAMNVKATGIIVPTIGLSDGIIDSLYTQKMNTPVAPKVQ | not soluble
8 | MPKASDIKKGSAIEHNGKVFFVKEISKLTPSGRAGATLFRMRMYDVATGAKSDESFKADDMINLADFSRRSATFSYVDGNEYVFMDSEDYTPYNFNKEAIEEELLFITEETQGLQILIVDGAPVAIELPSAVDLEIVETAPSIKGASASARTKPATMTTGLTVQVPEYIANGEKVKINTTEHKFMSRALEHHHHHH | not soluble
9 | MGSDKIHHHHHHALEENKEAKSLLEGIWLDDNTETALLRVKGDTLFYADAATAPVAFKIIGDSLITYGARTNGYKIEKQGEHIFWFHSAVGDVIRLHKSDTENDSLAFIHTREIPVYNEVIKKDSVVTYDNVRYRGYVYINPSKIKVMRPGVSEEGLGVDNVYYDNIIHICVYEGRKSLYAKDITKQMFKGVVPDDFLQWAILSDMDFMGVDSKGYHYQATVCIPDGASCYMVNITAGKDGGLAFELVR | not soluble
10 | MTVQVFHTLFLTNDCGDHVVLINTREIALPGDEWVKRVYFHHTGYPGGASWTLAWQLHEKDPTMVMKKAVYNSMRGNLQRRHTMQRLHLFADDQVPEEILQNVTNQIRTPRSIPQRLDHIDKETLENFPNIMDYPKDYILRLEHHHHHH | not soluble
11 | MGSDKIHHHHHHMKGFLQTVTGPVAHTDMGLTLPHEHLFNDLSSVVDEPHYAFSQQLVGKKVSADLQWGLKHDPYCCADNMDRKEIDDVIFEINNFMSLGGRTIVDATGSESIGRDASALREVALKTGLNIVASSGPYLEKFESTRIHKPVELLASLIDKELNQGIGETDIRAGMIGEIGVSPAFTQAERNSLRAASLAQCNNPHTAMNIHMPGWLRLGDEVLDIVLEEMNVSPAKVSLAHSDPSGKDVVYQRKMLDRGVWLEFDMIGLDITFPKEGVAPGVQETADAVANLIALGYADQIVLSHDVFLKQMWAKNGGNGWGFVPNVFLAYLAARGVDNDTLRKLCIDNPARLLTA | not soluble
12 | MINLELGKDFLDRFTKVCEFLRVEPSLDVVVFECESLEEFHEITGMPYHTGGVYHEGVIYTQPLDVLRRKNSLEATILHELLHHVLEMYFDLPRWMEEGVVLAVLGVKPEEVFGYHRDCLLRFMEKVRYEEIPDLVDRYRRSSVERRLEHHHHHH | soluble
13 | MESTKSYDIPILRNVSRSFSVHYRDYLQRCGIFVPKEGNSSGPDAYVVFHNGQTRYVVGFSFKFYHKSEFSKRNIEEEAKKFFKGVVSVLNDESFSSVQLRFQFVMVVCTSYGRSVVFSSEEQNIVEDASYLVTEHSSGSTLNESSRSCLQLVIVSQRNLEMYLGRDNVETLRKIGEASREEFSKDFSVWCETVFESMSNEYVSPLEQSNVTLRVARNIRPRTNEENRMQIEELQTAMKVERSVAASSSLSSSFDWNTFLREYCGLSEEDVAYCLPKVEDIDMDELPAVTKEILRDLGIDKPALRLKIRSSIRSYLANER | soluble
14 | MDAKQRIARRVAQELRDGDIVNLGIGLPTMVANYLPEGIHITLQSENGFLGLGPVTTAHPDLVNAGGQPCGVLPGAAMFDSAMSFALIRGGHIDACVLGGLQVDEEANLANWVVPGKMVPGMGGAMDLVTGSRKVIIAMEHCAKDGSAKILRRCTMPLTAQHAVHMLVTELAVFRFIDGKMWLTEIADGCDLATVRAKTEARFEVAADLNTQRGDL | soluble
15 | MSEISAIWERIEAWHAANDQTENLNPGATAEALAQAEKDMGLTFPPEMRESLLRHDGSVDDSWPTGELLSLERMADERKVWMDLLQDGTFDGNASHNESSEALQPGWWNPAWIPLDADGGGNGAVIDLAPGPQGTVGQVIDMDHEVGPSGPKYVSLAAYLEAMLERLSEAEE | soluble
16 | MASTIAFPAMVKELRLSKNLTMEQLAEEVGKTKSTISKWEKGTRSPKIYEIEEIAKFFGVEPKKMMFGDNPTPTAPQVELIPSTLQKINSTSSQLEHKRQLNVLDYAETQLEQQNTVEEPQATYYTYNYYDHAASAGTGQYLNDVQVETIELPVDYDADFVIPVYGDSMEPKYHSGDYVFVKLSVELTDGDIGVFEYYGDAYIKQLLINDKGAFLHSLNQCGDYPDIPIDRDSDFRIIGEVMGSYRER | not soluble
17 | MGHHHHHHGGHMSLNISDVAKITGLTSKAIRFYEEKGLVTPPMRSENGYRTYTQQHLNELTLLRQARQVGFNLEESGELVNLFNDPQRHSADVKRRTLEKVAEIERHIEELQSMRDQLLALANACPGDDSADCPIIENLSGCCHHRAGEGGS | soluble
18 | MGSKKLKRVGLSQELCDRLSRHQILTCQDFLCLSPLELMKVTGLSYRGVHELLCMVSRACAPKMQTAYGIKAQRSADFSPAFLSTTLSALDEALHGGVACGSLTEITGPPGCGKTQFCIMMSILATLPTNMGGLEGAVVYIDTESAFSAERLVEIAESRFPRYFNTEEKLLLTSSKVHLYRELTCDEVLQRIESLEEEIISKGIKLVILDSVASVVRKEFDAQLQGNLKERNKFLAREASSLKYLAEEFSIPVILTNQITTHLSGALASQADLVSPADDLSLSEGTSGSSCVIAALGNTWSHSVNTRLILQYLDSERRQILIAKSPLAPFTSFVYTIKEEGLVLQAYGNS | soluble
19 | MPSTSMIEDRSEIERRRFEYLDHPADIQLHSWGSTMEEAFEACLVSMFGYMTDLAKVDEMYEFYWKASGDSLDGLLFQFLDEALNSFHAEPCFVAKRVEILRFDKKKFEIEFRGWGESFDTSKHETEADIKSPTYSNMQINEKPERCDIYVIVDI | not soluble
20 | MISVFHYHQPKIGNSESEYEDAFSYDVEKGLFAMADGSSESVFSNEWARSLVDTFVAGKYDMKIDDMVETAVGMWRSKLPWNNMKWFVKNKIARGSMATFLGLEVLDGSFRSVAVGDTCLFIITPEGMKSFPVKYPSEFGNTPKLIWTGNPLLRTRRSIKWANYMEGRISESDLLIMATDSLAHWMLSRAKQRPWQILIDHSENEGEFIGSLINSGEMKNDDVTFAIISLK | not soluble
21 | MGSDKIHHHHHHSDVVDLEPVDKFSELTAYGTEERCELAVVGAYDAAQCGMYVDPNDFGWARGYPFGAASILQGEMRGEDMNLTAQFYDYTYSATYNLTTANNVAMWETSFEAINRYNTVYAGIEGAVAAGVITEEKGNQYKGECLFLRALTYHNLMIHYALPYNVEGNNNYGMPIYTKAVNDPSQLAEQQSIGRSTVKDTYDQILSDLNNAESMLPDIIDADKIGRASKGAAIALKTRVYLHMRDWNNVVTEAKKLEGGRFILETNPATPFVSYKDNQESIFSIPNDSQDNGSVNGAMSAMMSAREGGRAMCPTSPTLYNSKFWKGDDKRRNLVLYRASDDYYFCDKYQNPQTREEYAPILRYAEVLLNEAEAAARAGDKTLALEKLNQVRDRSLADPATQTYKASDFANTKALVEAILWERRIEFQGEGRRWEDIHRLAADDLLPSGGIPAKIEYNNVKNQGAFVVGGEVKAEWFGNSKQFIPYTDKRFIWPIPLNDILRNPTLAAQQNAGW | not soluble
22 | MEYPRVMIRFAVIGTNWITRQFVEAAHESGKYKLTAVYSRSLEQAQHFANDFSVEHLFTSLEAMAESDAIDAVYIASPNSLHFSQTQLFLSHKIHVICEKPLASNLAEVDAAIACARENQVVLFEAFKTACLPNFHLLRQALPKAGKLRKVFFNYCQYSSRYQRYLDGENPNTFNPAFSNGSIMDIGFYCLASAVALFGEPKSVQATASLLASGVDAHGVVVMDYGDFSVTLQHSKVSDSVLGSEIQGEAGSLVIEKLSECQKVCFVPRGSQMQDLTQPQHINTMLYEAELFATLVDEHLVDHPGLAVSRITAKLLTEIRRQTGVIFPADSVKLYLPK | not soluble
23 | SDRLIDKMAGEERQKIELWAQATKIVASDDEAVLAKDLVLQIIQSNNSIPVILCDPKDSIISYNNIDIPAGKPALPYLQKKLRYFKEGYPPIRIEIEARRPQFLYYSDSQTLRR | not soluble
